Data as given in patent US12371675B2, “Process and microorganism for synthesis of adipic acid from carboxylic acids” (THE GOVERNING COUNCIL OF THE UNIVERSITY OF TORONTO, priority 2015, dated 2025).

Assay: OYE hydrogenation activity screen, NADPH oxidation at 340 nm
Type: biochemical
Settings: 1 mM substrate, 0.25 mM NADPH, 2.5 μg protein; cut-off 0.05 U/mg protein; ND = not detected
Description: 25 putative OYE genes (Table 1) were cloned based on the Pfam domain of the FMN oxidoreductase family PF00724. Purified OYEs were screened for hydrogenation activity against acrolein, 2-cyclohexn-1-one, cis,cis-muconic acid, trans,trans-muconic acid, and 2-hexendioic acid. Substrate specificity was measured spectrophotometrically in 96-well plates by following incubation for 20 min at room temperature in the anaerobic chamber. Buffers and reagents were also degassed and sparged with Ar. Reaction mixtures contained potassium phosphate (50 mM and pH 7.0), NaCl (10 mM), NADPH (0.25 mM), various substrates (1 mM) and protein (2.5 μg) in a final volume of 200 μL. Enzyme reactions were monitored by following the decrease in absorbance at 340 nm (ε340 nm=6,200/M·cm) as a measure of the conversion of the cofactor NADPH to NADP+.

Row | Molecule | Activity [U/mg protein] 2-cyclohexen-1-one | Activity [U/mg protein] acrolein [U/mg protein]
1 | PSPH1060: OYE protein from Pseudomonas syringae pv. phaseolicola 1448A (protein) MSVEALFTPFRLGSLELSSRVVMAPMTRSFSPGHVPNSKVIEYYRRRAAAGVGLIVTEGTTVNHKASNGYPNVPQFFGDAPLAGWRKVVEAVHAEGGKIVPQLWHVGAVRRPGTEPDGSVPAYGPMEKVKDGQVLVHGMSKQDIDDVVAAFAQAAVDAKAIGMDGVEIHGAHGYLIDQFFWEGSNQRSDEYGGSLAKRSRFAIELIKAVRVAVGADYPIIFRFSQWKQQDYTARLVQTPEALGEFLQPLADAGVDIFHCSTRRFWEPEFEGSDLNLAGWTRKLTGKPTITVGSVGLDGEFLQFMVNTDKVAQPASLENLLKRLGNDEFDLVAVGRALLVDPDWALKVREGREQDILPFSREALTTLV | 0.14 U/mg protein | 
2 | LMO2471: OYE protein from Listeria monocytogenes EGD-e (protein) MSKLFSEYKLKDVTLKNRIVMSPMCMYSVENKDGIATDFHFAHYVSRAAGGTGLVILEATAVQEVGRISEFDLGLWNDEQVPALKKLVGGLHYHGAKAGIQLAHAGRKAVLPGEIVAPSAIAFDEKSDKPVELTKEAIKEVVADFKRAAYRAKEAGFDVIEIHAAHGYLIHQFLSPITNRREDNYGGPAGNRYKILSDIIKAVKEVWDGPIIVRVSATDYAHGGLQLEDHIPFAKWMKADGVELIDVSTGGLVNVAPPVFPGYQVPFADEIRRGAGIATGALGLITRGEQAEEILCNERADLIIVGRELLRNPYFAKDAAKQLGETIEAPKQYSRAWK | 0.08 U/mg protein | 
3 | PS1143: OYE protein from Pseudomonas syringae pv. tomato str. DC3000 (protein) MSAAALFTPFRLGGLELSSRVVMAPMTRSFSPGHVPNSKVIEYYRRRAAAGVGLIITEGTTVNHPASNGYPNVPQFFGDAPLAGWKKVVDAVHAEGGKIAPQLWHVGAVRRLGTEPDGSIPAYGPMEKVKDGQVLVHGMSKQDIDEVVAAFAQAAADAKAIGMDGVEIHGAHGYLVDQFFWEGSNQRSDEYGGSLANRSRFAIELIKAVRAAVGPDYPIIFRFSQWKQQDYSARLVQTPEALGEFVQPLSDAGVDIFHCSTRRFWEPEFEGSELNLAGWTRKLTGKPTITVGSVGLDGEFLQFMVNTEKVAQPASLENLLERLGKDEFDLVAVGRALLVDPDWAVKVREGREQDILPFSREALTTLV | 0.18 U/mg protein | 
4 | NE2398: OYE protein from Nifrosomonas europaea ATCC 19718 (protein) MLFNPLQVGSLTLPNRILLAPLTRARADAGHMPNALMAEYYSQRATGGLLISECTMVAPGTSAFVNEPGIYNDAQIAAWRQVTDAVHAKGGRIFMQIWHAGRAAYPGAADGAPIVSSSATAIEGEIHTPQGKVPHAVPRPLTVDEIPGIVAAFAQGARNAIAAGFDGVEVHGANGYLIDQFLRDTPNQRTDAYGGSLENRARLLFEVLTAVTQAIGSERVGLRLSPLNSFNSMKDSDPLALIGFLADRLNAFKLAYLHVMRADFFGVQKADVMPVAREKYKGVLVGNMGYSADEAEAAIAEGRLDAVAFGTAFLANPDLPARIRAKAPLNAPDSNTFYAGGAKGYTDYPTLQLA | 0.19 U/mg protein | 
5 | PSPH1370: OYE protein from Pseudomonas syringae pv. phaseolicola 1448A (protein) MSLLLEPYTLRQLTLRNRIAVSPMCQYSSVDGLANDWHLVHLGSRAVGGAGLVITEAMAVTPDGRITPEDLGLWNDEQIEPLQRITRFINAQGAVAGIQLAHAGRKASTWRPWLGKHGSISLNEGGWTPVGPSAIAFDPQHTAPVQLSETQIQELIKAFVDSARRALTAGFKVVEIHAAHGYLLHQFLSPLSNQRTDQYGGSFENRIRLTLQVTEAVRAVWPEELPLFVRVSATDWVEDGWNADETVELARRLKALGTDLIDVSSGGTSANAEIPVGPGYQTRFAERVRKESEIATGTVGMITDPAQAEHILRTGQADIILLARELLRDPYWPLRADEDLGGRLATWPAQYQRATHRDQPIHESDLRD | 0.18 U/mg protein | 
6 | PP1244: OYE protein from Pseudomonas putida KT2440 (protein) MSALFEPYTLKDVTLRNRIAIPPMCQYMAEDGMINDWHHVHLAGLARGGAGLLVVEATAVAPEGRITPGCAGIWSDAHAQAFVPVVQAIKAAGSVPGIQIAHAGRKASANRPWEGDDHIAADDARGWETIAPSAIAFGAHLPKVPREMTLDDIARVKQDFVDAARRARDAGFEWIELHFAHGYLGQSFFSEHSNKRTDAYGGSFDNRSRFLLETLAAVREVWPENLPLTARFGVLEYDGRDEQTLEESIELARRFKAGGLDLLSVSVGFTIPDTNIPWGPAFMGPIAERVRREAKLPVTSAWGFGTPQLAEAALQANQLDLVSVGRAHLADPHWAYFAAKELGVEKASWTLPAPYAHWLERYR | 0.25 U/mg protein | 0.06
7 | PP1466: OYE protein from Pseudomonas putida KT2440 (protein) MSLLLEPYTLRQLTLPNRIAVSPMCQYSAIDGLANDWHLVHLGCRAVGGAGLVISEAVAVTADGRITAEDLGLWNDDQIVPLQRITRFITAQGAVPGIQLAHAGRKASTYRPWLGKQGSVKLEDGGWQPVGPSKIAFDPQHTPPRELSKDEIQDVIDAFVASTERALKAGFKVVEIHAAHGYLLHQFLSPLSNQRRDEYGSCFENRIRLTLQVVEAVRKVWPAELPLFVRVSATDWVEDGWNPDETVELARRLRVLGVDLIDVSSGGTSVNAEIPTGPGYQTRFAERVRKEAEIATGTVGMITEPAQAEHILRTGQADVIFLARELLRDPYWPLHADDDLGGNKATWPAQYQRATSRANPIHESDLRD | 0.14 U/mg protein | 
8 | PS2358: OYE protein from Pseudomonas syringae pv. tomato str. DC3000 (protein) MSALFEPFKLKDVTLRNRIAIPPMCQYSAIDGVVNDWHHVHLASMARGGAGLLVVEATAVAPEGRITPGCTGIWNDEQAQAFVPIVKAIKDAGCVPGIQIAHAGRKASANRPWEGDDHIVASDSRGWDTIAPSAIAFGANLPKVPRAMTLDDIARVRQNFVDAARRARDAGFEWIELHFAHGYLGQSFFSEHSNQRTDEYGGSFDNRSRFLLETLAAVREVWPENLPLTARFGVLEYDGRDEQTLTESIELARRFKAGGLDLLSVSVGFSTPDANIPWGPAFMGPIAERVRREAAIPVTSAWGFGEPKLAEEAVKSGQLDLVSIGRAHLADPHWAYFAAKELGVEKSAWTLPAPYAHWLERYR | 0.13 U/mg protein | 
9 | PA2932: OYE protein from Pseudomonas aeruginosa PAO1 (protein) MSNLLLSPLAVGNLALRNRIVMAPMTRSRAQQPGDVPTALNALYYAQRAGAGLIVSEGTQISHLGQGYAYTPGIYSEAQLAGWRQVTEAVHAAGGLIAAQLWHVGRMSHRSLQAGGEAPIAPSPIQAKAQVFIADGQGGGSMAPADAPREMTLEDIRRVRDEFVRAARNALDAGFDLVELHGANGYLIDQFLASASNRRSDAYGGSLENRARFLLEIVDALVAAVGAERVGLRLSPWGTINDMHDDEPEAMTLYLAEALQRRGIAYLHLAEWEWSGGPAYPQGFRERLRERFRAPLIVCGNYDAERAEAILQAGLADAVAIGRPFIANPDLVERIRLGAPLAEANQARFYGGDAAGYTDYPTLGQSATA | 13 U/mg protein | 
10 | PS4251: OYE protein from Pseudomonas syringae pv. tomato str. DC3000 (protein) MTTIFDPITLGDLQLPNRIILAPLTRCRADEGRVPNALMSEYYVQRASAGLILTEATSVTPMGVGYPDTPGIWSNDQVRGWSNITQAVHNAGGRIVLQLWHVGRISHPSYLNGETPVAPSAIAAQGHVSLMRPITPLPTPRALELAEIGDIVEAYRVGAENAKAAGFDGVEVHGANGYLLEQFLLTGSNQRTDQYGGSLENRARLLLEVTDAVIDVWGAGRVGVHLSPRFDMHNMSDENRAETFSYVAKELGKRGIAFICARERDAEDSLGPQLKKDFGGVYIANEKFTKDSANAWLAEGKADAFAFGVPYIANPDLPERLASDAPLNEAHPETFYGKGPVGYIDYPRL | 0.09 U/mg protein | 
11 | PP0911: OYE protein from Pseudomonas putida KT2440 (protein) MTTLFDPIKLGDLQLPNRIIMAPLTRCRADEGRVPNALMAEYYVQRASAGLILSEATSVSPMGVGYPDTPGIWNDEQVRGWNNVTKAVHAAGGRIFLQLWHVGRISHPSYLNGELPVAPSAIQPKGHVSLVRPLSDYPTPRALETEEINDIVEAYRSGAENAKAAGFDGVEIHGANGYLLDQFLQSSTNQRTDRYGGSLENRARLLLEVTDAAIEVWGAQRVGVHLAPRADAHDMGDADRAETFTYVARELGKRGIAFICSREREADDSIGPLIKEAFGGPYIVNERFDKASANAALASGKADAVAFGVPFIANPDLPARLAADAPLNEAHPETFYGKGPVGYIDYPRL | 0.15 U/mg protein | 
12 | PA4356: OYE protein from Pseudomonas aeruginosa PAO1 (protein) MATLFDPIVLGDLELPNRIVMAPLTRCRADEGRVPNALMAEYYAQRADAGLILSEATAVTPMGVGYPDTPGIWSDDQVRGWSNVTKAVHAAGGRIFLQLWHVGRISDPLYLNGELPVAPSAIAAEGHVSLVRPKRPYVTPRALDTEEIADIVEAYRQGAERAKAAGFDGVEIHGANGYLLDQFLQDSTNKRTDRYGGSIENRARLLLEVTDAAISVWGAQRVGVHLAPRADSHDMGDSNRLETFSHVARELGKRGIAFICAREAQADDSIGVALKKAFGGPYIANEQFTLDSANAILAKGDADAVAFGVPFIANPDLVERLRQGAELNPPRPETFYTGGTEGYLDYPTLA | .15 U/mg protein | 
